# Substitutions are numbered along the chain they refer to. Numbers in names are those of the source.
# T1: human FcγR2A 131R (human, UniProt P12318 34-217)
# T1 construct: extracellular domain
# T1 sequence (looked up): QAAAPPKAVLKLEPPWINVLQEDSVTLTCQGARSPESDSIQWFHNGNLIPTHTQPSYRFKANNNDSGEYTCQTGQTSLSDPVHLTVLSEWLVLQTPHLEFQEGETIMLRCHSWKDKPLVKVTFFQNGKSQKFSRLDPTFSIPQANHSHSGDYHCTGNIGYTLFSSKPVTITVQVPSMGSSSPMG
# T2: human FcγR2A 131H (human, UniProt P12318 34-217)
# T2 construct: extracellular domain
# T2 sequence (looked up): T1 sequence (looked up) with R134H
# T3: human FcγR2B (human, UniProt P31994 43-217)
# T3 construct: extracellular domain; also called hFcγR2B; CD32B
# T3 sequence (looked up): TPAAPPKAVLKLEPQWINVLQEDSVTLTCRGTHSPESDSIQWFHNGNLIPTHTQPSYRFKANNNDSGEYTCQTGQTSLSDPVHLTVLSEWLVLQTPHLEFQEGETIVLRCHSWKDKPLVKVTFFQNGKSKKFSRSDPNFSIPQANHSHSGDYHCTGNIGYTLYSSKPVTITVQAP
# T4: soluble cynomolgus macaque BTLA extracellular domain (BTLA K31-R151) (cynomolgus macaque)
# T4 construct: also called cynomolgus BTLA; cyno BTLA
# T4 chain: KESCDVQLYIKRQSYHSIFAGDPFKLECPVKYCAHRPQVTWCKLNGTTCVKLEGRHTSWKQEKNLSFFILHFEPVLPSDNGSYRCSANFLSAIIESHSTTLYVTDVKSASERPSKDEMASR
# B1: humanised 2.8.6 hIgG1 delta ac P238D (antibody)
# chain 1: QVTLKESGPALVKPTQTLTLTCTVSGFSLTTYGVHWIRQPPGKALEWLGVMWPGGRTSYNPSLKSRLTITKDNSKSQVVLTMTNMDPVDTATYYCVRGDYEYDYYAMDYWGQGTLVTVSSASTKGPSVFPLAPSSKSTSGGTAALGCLVKDYFPEPVTVSWNSGALTSGVHTFPAVLQSSGLYSLSSVVTVPSSSLGTQTYICNVNHKPSNTKVDKKVEPKSCDKTHTCPPCPAPPVAGGDSVFLFPPKPKDTLMISRTPEVTCVVVDVSHEDPEVKFNWYVDGVEVHNAKTKPREEQYNSTYRVVSVLTVLHQDWLNGKEYKCKVSNKGLPSSIEKTISKAKGQPREPQVYTLPPSRDELTKNQVSLTCLVKGFYPSDIAVEWESNGQPENNYKTTPPVLDSDGSFFLYSKLTVDKSRWQQGNVFSCSVMHEALHNHYTQKSLSLSP
# chain 2: EIVLTQSPATLSLSPGERATLSCRASSSVSYMHWYQQKPGQAPRPLIYATSNRATGIPARFSGSGSGTDYTLTISSLEPEDFAVYYCHQWSSNPYTFGQGTKLEIKRTVAAPSVFIFPPSDEQLKSGTASVVCLLNNFYPREAKVQWKVDNALQSGNSQESVTEQDSKDSTYSLSSTLTLSKADYEKHKVYACEVTHQGLSSPVTKSFNRGEC
# B2: humanised 2.8.6 hIgG1 delta ab P238D (antibody)
# chain 1: QVTLKESGPALVKPTQTLTLTCTVSGFSLTTYGVHWIRQPPGKALEWLGVMWPGGRTSYNPSLKSRLTITKDNSKSQVVLTMTNMDPVDTATYYCVRGDYEYDYYAMDYWGQGTLVTVSSASTKGPSVFPLAPSSKSTSGGTAALGCLVKDYFPEPVTVSWNSGALTSGVHTFPAVLQSSGLYSLSSVVTVPSSSLGTQTYICNVNHKPSNTKVDKKVEPKSCDKTHTCPPCPAPPVAGDSVFLFPPKPKDTLMISRTPEVTCVVVDVSHEDPEVKFNWYVDGVEVHNAKTKPREEQYNSTYRVVSVLTVLHQDWLNGKEYKCKVSNKGLPSSIEKTISKAKGQPREPQVYTLPPSRDELTKNQVSLTCLVKGFYPSDIAVEWESNGQPENNYKTTPPVLDSDGSFFLYSKLTVDKSRWQQGNVFSCSVMHEALHNHYTQKSLSLSP
# chain 2: B1 chain 2
# B3: 24H7 (antibody, IgG1, V domains shown)
# VH: QVQLQQSGAELVRPGASVTLSCKASGYTFTDYEIHWVKQTLVHGLEWIGPIDPDTGNTAYNQNLKGKAILTADKSSSTAYMELRSLTSEDSAVYYCTRGGYDSDWGFAYWGQGTLVTVSA
# VL: DIVMTQATPSVPVTPGESVSISCRSSKSLLHSNGNTFLFWFLQRPGQSPQLLIYRMSDLASGVPDRFSGSGSGTAFTLRISRVEAEDVGIYYCMQHLEYPFTFGSGTKLEIK
# notes: mIgG1
# B4: 26B1 (antibody, IgG1, V domains shown)
# VH: EVQLQQSGPVLVKPGASVKMSCKASGYTFTDYYLNWVKQSHGKSLEWIGLIDPYNGGSSCNQKFKGKATLTVDKSSSTAYMDLNSLTSEDSAVYYCARGNAMDYWGQGTSVTVSS
# VL: DIVMTQSHKFMSTSVGDRVSITCKASQDVSTAVAWYQEKPGQSPKLLIYWASTRHTGVPDRFTGSGSGTDYILNISSVQAEDLALYYCQQHYIIPYMFGGGTKLEIK
# notes: mIgG1
# B5: 3E8 (antibody, IgG1, V domains shown)
# VH: QVQLQQSGAELARPGASVRLSCKASGYTFTSYAIRWVKQRTGQGLEWIGEIYPRSGNTYYNENFKGKATLTADKSSSTAYMELRSLTSEDSAVYFCARSGGASYTMDYWGQGTSVTVSS
# VL: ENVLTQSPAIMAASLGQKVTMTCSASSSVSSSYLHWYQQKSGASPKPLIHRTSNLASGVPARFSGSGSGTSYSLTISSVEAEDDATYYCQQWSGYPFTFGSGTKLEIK
# notes: mIgG1; also called clone 3E8
# B6: 14D4 (antibody, IgG1, V domains shown)
# VH: QVQLQQPGAELVKPRASVKLSCKASGYTFTSYWMHWVKQRPGQGLEWIGMIHPNNGIPNYNEKFKSKATLTVDKSSTTAYMQLSSLTSEDSAVYHCAREGYYGSEGYFDVWGTGTTVTVSS
# VL: QIVLTQSPAIMSASPGEKVTMTCSASSSISYIHWYQQKPGTSPKRWIYDTSKLASGVPARFSGSGSGTSYSLTISSMEAEDAATYYCHQRSTYPYTFGGGTKLEIK
# notes: mIgG1
# B7: 16H2 (antibody, IgG1, V domains shown)
# VH: EVQLQQSGPELVQPGASVKISCKASGYTFTDYYMIWVKQSHGKSLEWIGNINPNNGGTTYNQKFKGKATLTVDKSSSTAYMGLPSLTSEDSAVYYCARGGLRPLYFDYWGQGTTLTVSS
# VL: NIVMTQSPKSMSMSVGERVTLSCKASENVDTYVSWYQQKPEQSPKLLIYGASNRYTGVPDRFTGSGSATDFTLTISSVQAEDLADYHCGQSYSYPLTFGAGTKLELI
# notes: mIgG1
# B8: 1H6 (antibody, IgG1, V domains shown)
# VH: EVQLQQSVAELVRPGASVKLSCTASGFNIKNTYMHWVKQRPEQGLEWIGRIDPANGNTKYDPKFQGKATITADTSSNTAYVQLSSLTSEDTAIYYCALTYYGSSQHYFDYWGQGTTLTVSS
# VL: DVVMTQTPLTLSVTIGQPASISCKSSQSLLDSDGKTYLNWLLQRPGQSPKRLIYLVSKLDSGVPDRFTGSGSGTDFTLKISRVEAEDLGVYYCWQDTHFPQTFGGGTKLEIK
# notes: mIgG1
# B9: 8C4 (antibody, IgG1, V domains shown)
# VH: DVQLQESGPGMVKPSQSLSLTCTVTGYSITSGYDWHWIRHFPGNKLEWMGYISYSGSTNYNPSLKSRISITHDTSKNHFFLKLNSVTTEDTATYYCARGTPVVAEDYFDYWGQGTTLTVSS
# VL: QAVVTQESALSTSPGETVTLTCRSSTGAVTTSNYANWVQEKPDHLFTGLIGATNNRAPGVPARFSGSLIGDKAALTITGAQTEDEAIYFCALWYSNHLVFGGGTKLTVLG
# notes: mIgG1
# B10: Engineered humanised 6.2 (Variant A) (antibody, V domains shown)
# VH: EVQLVESGGGLVKPGGSLRLSCAASGFTLSSYGMSWVRQAPGKGLEWVASIRSEGQTYYPDSVKGRFTISRDNAKNTLYLQMSSLRAEDTAVYYCTRGGYYGSSPYYWGQGTTVTVSS
# VL: DIVMTQSPLSLPVTPGEPASISCKSSQSLLYSSNQKNYLAWYQQKPGQSPKLLIYWASTRESGVPDRFSGSGSGTDFTLKISRVEAEDVGVYYCQQYYNYLTFGGGTKVEIKR
# Target: T5, human FcRn (human, UniProt P55899 24-297; P61769 21-119, limits assumed, biotinylated)
# T5 construct: bought; also called FcRn pH6
# Assay: SPR, pH6.0
# Throughout, for AntiCD3/CD28 (CD4 T cell proliferation) repeat 1: test concentration or dose not given here.
# Throughout, for AntiCD3/CD28 (CD4 T cell proliferation) repeat 2: test concentration or dose not given here.
# Throughout, for AntiCD3/CD28 (CD69+ CD4 T cells) repeat 1: test concentration or dose not given here.
# Throughout, for AntiCD3/CD28 (CD69+ CD4 T cells) repeat 2: test concentration or dose not given here.
# Throughout, for MLR (CD4 T cell proliferation) repeat 1: test concentration or dose not given here.
# Throughout, for MLR (CD4 T cell proliferation) repeat 2: test concentration or dose not given here.
# Throughout, for T cell reporter (NFκB signaling): test concentration or dose not given here.
row,avidity (FcRn pH6) [nM],Binder
1,14.2,B1

# Target: T1, human FcγR2A 131R
# Assay: SPR 37C, steady state;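 note: fc variants captured on chip-bound human BTLA ectodomain, recombinant FcγR ectodomains injected as analyte at varied concentrations, double-referenced equilibrium binding fitted to Langmuir model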
# Procedure: (§1) For the low affinity FcγRs (FcγR2A, FcγR2B, FcγR3A and FcγR3B) the interactions were assessed by surface plasmon resonance with the recombinantly expressed FcRs (extracellular domains only) as analyte. Briefly, recombinant human BTLA extracellular domain (BTLA^K31-R151) was covalently immobilised to both flow cells of all channels of a CMS Series S sensor chip using the GE Healthcare Amine coupling kit. The 2.8.6 Fc variant to be assessed was then captured (approx. 500-1000 response units) in flow cell 2 of each channel. Steady state affinity analysis was then performed by injecting varying concentrations of FcR in multiple cycles and measuring equilibrium binding. Double referencing was used (subtracting the signal in the reference Fc1 and also subtracting the signal from a blank zero concentration injection). KDs were calculated from the Langmuir curves (plotting equilibrium binding against analyte concentration to determine the concentration required for half maximal binding).
row,Kd [µM],Binder
1,399,B1

# Target: T2, human FcγR2A 131H
# Assay: SPR 37C, steady state;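 note: fc variants captured on chip-bound human BTLA ectodomain, recombinant FcγR ectodomains injected as analyte at varied concentrations, double-referenced equilibrium binding fitted to Langmuir model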
# Procedure: as §1
row,Kd [µM],Binder
1,771,B2

# Target: T3, human FcγR2B
# Assay: SPR 37C, steady state;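 note: fc variants captured on chip-bound human BTLA ectodomain, recombinant FcγR ectodomains injected as analyte at varied concentrations, double-referenced equilibrium binding fitted to Langmuir model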
# Procedure: as §1
row,Kd [µM],Binder
1,876,B2
2,1170,B1

# Target: T6, human FcγR3A 158V (human, UniProt P08637 17-208)
# T6 construct: extracellular domain
# T6 sequence (P08637 17-208 F176V): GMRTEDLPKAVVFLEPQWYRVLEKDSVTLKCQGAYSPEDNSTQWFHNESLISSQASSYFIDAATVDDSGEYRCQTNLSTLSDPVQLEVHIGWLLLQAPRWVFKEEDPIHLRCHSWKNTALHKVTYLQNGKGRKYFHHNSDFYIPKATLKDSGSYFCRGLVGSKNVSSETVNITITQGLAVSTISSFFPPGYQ
# Assay: SPR 37C, steady state;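 note: fc variants captured on chip-bound human BTLA ectodomain, recombinant FcγR ectodomains injected as analyte at varied concentrations, double-referenced equilibrium binding fitted to Langmuir model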
# Procedure: as §1
row,Kd [µM],Binder
1,1410,B1

# Target: full length human BTLA expressed on cells (human, UniProt Q7Z6A9 31-289)
# Assay: cell-based or functional assay
row,T cell reporter (NFκB signaling) [% inhibition],Binder
1,22,B3
2,29,B4
3,30,B5
4,16,B6
5,29,B7
6,26,B8
7,21,B9

# Target: chimeric BTLA of humanised-BTLA mice (human extracellular region, murine transmembrane and signaling … (human; mouse, UniProt Q7TSA3 184-306, limits assumed)
# Sequence (Q7TSA3 other isoform, or with tags, fused parts or gaps mutant limits assumed): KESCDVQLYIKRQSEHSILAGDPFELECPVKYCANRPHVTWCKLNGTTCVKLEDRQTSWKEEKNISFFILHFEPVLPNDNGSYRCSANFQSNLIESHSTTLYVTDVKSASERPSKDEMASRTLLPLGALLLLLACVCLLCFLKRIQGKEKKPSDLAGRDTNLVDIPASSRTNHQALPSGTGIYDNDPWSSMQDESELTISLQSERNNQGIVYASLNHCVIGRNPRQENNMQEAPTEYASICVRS
# Assay: cell-based or functional assay
AntiCD3/CD28 (CD4 T cell proliferation) repeat 1 [% inhibition],AntiCD3/CD28 (CD4 T cell proliferation) repeat 2 [% inhibition],AntiCD3/CD28 (CD69+ CD4 T cells) repeat 1 [% inhibition],AntiCD3/CD28 (CD69+ CD4 T cells) repeat 2 [% inhibition],MLR (CD4 T cell proliferation) repeat 1 [% inhibition],MLR (CD4 T cell proliferation) repeat 2 [% inhibition],Binder
13,23,52,44,23,31,B3
11,19,35,30,12,10,B4
27,35,52,64,43,35,B5
24,29,43,52,39,26,B6
11,23,51,60,40,26,B7
26,19,47,53,31,16,B8
12,4,29,29,42,-2,B9

# Target: T7, monomeric soluble human BTLA extracellular domain (BTLA K31-R151) (human, UniProt Q7Z6A9 31-151)
# T7 construct: also called hBTLA; monomeric BTLA
# Assay: SPR 37C, mAb captured, BTLA ECD analyte;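 note: Anti-BTLA mouse antibodies captured on a sensor chip via polyclonal anti-mouse IgG, isotype control antibody in reference channel, rates fitted after reference and blank subtraction to derive Kd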
# Procedure: (§2) Mouse antibody capture kit (GE Healthcare) was used to coat a Series S CMS Sensor Chip (GE Healthcare) with polyclonal anti-mouse IgG. Anti-BTLA antibody was then captured onto the biosensor surface and a negative control antibody (clone Mopc21; Biolegend) captured in the reference channel. […] Association and dissociation rates were fitted using BiaEvaluation Software (GE Healthcare) after reference and blank subtractions, and dissociation constants were calculated (FIG. 1b).
Kd [µM],koff [s⁻¹],kon [M⁻¹ s⁻¹],Binder
0.00066,0.00016,243000,B3
0.112,0.0608,543000,B5

# Target: T4, soluble cynomolgus macaque BTLA …
# Assay: SPR 37C, mAb captured, BTLA ECD analyte;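 note: Anti-BTLA mouse antibodies captured on a sensor chip via polyclonal anti-mouse IgG, isotype control antibody in reference channel, rates fitted after reference and blank subtraction to derive Kd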
# Procedure: as §2
row,Kd [µM],Binder
1,0.168,B4
2,0.607,B5
3,0.00183,B6
4,0.16,B7
5,0.00608,B8
6,0.161,B9

# Target: T7, monomeric soluble human BTLA …
# Assay: SPR Biacore 8K 37C, single cycle kinetics;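 note: antibody captured on sensor chip, soluble BTLA extracellular domain flowed over at several concentrations in HBS-EP pH 7.4, rates fitted after subtracting isotype-control reference channel and blank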
# Procedure: (§3) The binding affinity and kinetics of humanised BTLA agonist antibodies to human or cynomolgus BTLA were determined by surface plasmon resonance using the Biacore 8K (GE Healthcare). […] Anti-BTLA antibody was then captured onto the biosensor surface and a negative control antibody (human IgG1k isotype control; Sino Biological cat #HG1K) captured in the reference channel. Various concentrations of monomeric soluble human BTLA extracellular domain (BTLA^K31-R151, produced recombinantly in house) or soluble cynomolgus macaque BTLA extracellular domain (BTLA^K31-R151, produced recombinantly in house) were then injected over the immobilized antibodies in the buffer HBS-EP (GE Healthcare, cat #BR100669), pH 7.4 (HBS-P) at 37° C., in a single cycle kinetics analysis.
Kd [µM],koff [s⁻¹],kon [M⁻¹ s⁻¹],Binder
0.0109,0.00756,694000,B10

# Target: T4, soluble cynomolgus macaque BTLA …
# Assay: SPR Biacore 8K 37C, single cycle kinetics;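 note: antibody captured on sensor chip, soluble BTLA extracellular domain flowed over at several concentrations in HBS-EP pH 7.4, rates fitted after subtracting isotype-control reference channel and blank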
# Procedure: as §3
Kd [µM],koff [s⁻¹],kon [M⁻¹ s⁻¹],Binder
0.695,0.0507,72900,B10
